From the supplement of paper PMC9112550, “Optimization of the antimicrobial peptide Bac7 by deep mutational scanning” (BMC Biology, 2022)

System: Escherichia coli TOP10
Experiment: shrunken log2 fold change of peptide-encoding DNA abundance (4.5 h post-induction vs induction); higher = less antimicrobial activity (less host growth inhibition)
Conditions: time post-induction: 4.5 h; library: site-saturation at positions 5, 18, 19, 20
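Also: peptides expressed intracellularly from a pBAD plasmid library in pooled LB shake-flask culture, induced with 0.3% L-arabinose, DNA abundance read by NGS, three biological replicates, DESeq2 with apeglm shrinkage.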

Sequence | shrunken log2 fold change
RRIRVRPPRLPRPRPRPANPPRP | -0.21
RRIRVRPPRLPRPRPRPANQPRP | -0.186
RRIRVRPPRLPRPRPRPAPQPRP | 0.618
RRIRVRPPRLPRPRPRPAQIPRP | -0.246
RRIRVRPPRLPRPRPRPASWPRP | 0.294
RRIRVRPPRLPRPRPRPAVAPRP | 0.266
RRIRVRPPRLPRPRPRPAVRPRP | 0.123
RRIRVRPPRLPRPRPRPAWEPRP | 0.162
RRIRVRPPRLPRPRPRPAYDPRP | -0.565
RRIRVRPPRLPRPRPRPAYSPRP | -0.167
RRIRVRPPRLPRPRPRPAYWPRP | -0.000323
RRIRVRPPRLPRPRPRPCDMPRP | -0.448
RRIRVRPPRLPRPRPRPCEVPRP | -0.0542
RRIRVRPPRLPRPRPRPCFQPRP | -0.313
RRIRVRPPRLPRPRPRPCGKPRP | -0.15
RRIRVRPPRLPRPRPRPCGVPRP | -0.0743
RRIRVRPPRLPRPRPRPCLVPRP | -0.115
RRIRVRPPRLPRPRPRPCMGPRP | -0.234
RRIRVRPPRLPRPRPRPCMHPRP | 1.2
RRIRVRPPRLPRPRPRPCNDPRP | -0.437
RRIRVRPPRLPRPRPRPCNVPRP | -0.452
RRIRVRPPRLPRPRPRPCPDPRP | -0.0269
RRIRVRPPRLPRPRPRPCPEPRP | -0.189
RRIRVRPPRLPRPRPRPCPGPRP | 0.00413
RRIRVRPPRLPRPRPRPCQIPRP | -0.34

Sequence | shrunken log2 fold change
RRIRVRPPRLPRPRPRPCRDPRP | -0.4
RRIRVRPPRLPRPRPRPCRWPRP | 0.182
RRIRVRPPRLPRPRPRPCTHPRP | 0.0145
RRIRVRPPRLPRPRPRPCTRPRP | -0.214
RRIRVRPPRLPRPRPRPCVNPRP | 0.125
RRIRVRPPRLPRPRPRPCWDPRP | -0.154
RRIRVRPPRLPRPRPRPCWIPRP | -0.0862
RRIRVRPPRLPRPRPRPCYMPRP | 0.155
RRIRVRPPRLPRPRPRPDDYPRP | -0.272
RRIRVRPPRLPRPRPRPDEFPRP | -0.0422
RRIRVRPPRLPRPRPRPDFHPRP | -0.208
RRIRVRPPRLPRPRPRPDFTPRP | -0.282
RRIRVRPPRLPRPRPRPDGKPRP | -0.0236
RRIRVRPPRLPRPRPRPDGLPRP | 0.0431
RRIRVRPPRLPRPRPRPDGPPRP | 0.0955
RRIRVRPPRLPRPRPRPDHQPRP | -0.00679
RRIRVRPPRLPRPRPRPDHYPRP | -0.149
RRIRVRPPRLPRPRPRPDIIPRP | -0.35
RRIRVRPPRLPRPRPRPDKRPRP | 0.0226
RRIRVRPPRLPRPRPRPDLIPRP | 0.0639
RRIRVRPPRLPRPRPRPDLNPRP | -0.233
RRIRVRPPRLPRPRPRPDNKPRP | -0.581
RRIRVRPPRLPRPRPRPDPIPRP | -0.00485
RRIRVRPPRLPRPRPRPDPLPRP | -0.231
RRIRVRPPRLPRPRPRPDQKPRP | 0.002

Sequence | shrunken log2 fold change
RRIRVRPPRLPRPRPRPDSPPRP | 0.0663
RRIRVRPPRLPRPRPRPDTFPRP | -0.0845
RRIRVRPPRLPRPRPRPDTKPRP | -0.26
RRIRVRPPRLPRPRPRPDVIPRP | -0.0508
RRIRVRPPRLPRPRPRPDWDPRP | 0.0311
RRIRVRPPRLPRPRPRPDYGPRP | -0.133
RRIRVRPPRLPRPRPRPDYMPRP | 0.0631
RRIRVRPPRLPRPRPRPEAPPRP | 0.000205
RRIRVRPPRLPRPRPRPEDAPRP | 0.801
RRIRVRPPRLPRPRPRPEENPRP | 0.265
RRIRVRPPRLPRPRPRPEFVPRP | -0.262
RRIRVRPPRLPRPRPRPEGGPRP | 0.747
RRIRVRPPRLPRPRPRPEGLPRP | 0.0931
RRIRVRPPRLPRPRPRPEGNPRP | 0.00902
RRIRVRPPRLPRPRPRPEGPPRP | 0.239
RRIRVRPPRLPRPRPRPEGYPRP | -0.0123
RRIRVRPPRLPRPRPRPEINPRP | -0.00259
RRIRVRPPRLPRPRPRPELKPRP | -0.341
RRIRVRPPRLPRPRPRPELNPRP | -0.0839
RRIRVRPPRLPRPRPRPELPPRP | -0.0996
RRIRVRPPRLPRPRPRPELTPRP | 0.149
RRIRVRPPRLPRPRPRPEMYPRP | -0.19
RRIRVRPPRLPRPRPRPENKPRP | -0.134
RRIRVRPPRLPRPRPRPEPHPRP | -0.0157
RRIRVRPPRLPRPRPRPEPWPRP | 0.128
